The results in this text go back to the Human Domainome abundance scans (Beltran et al. 2025).

± gives the uncertainty stated by the source.

B1: Homeobox protein SIX3, residues 212 to 262; numbered along this chain, O95343 (parent)
chain: CFKERTRSLLREWYLQDPYPNPSKKRELAQATGLTPTQVGNWFKNRRQRDR

In the data set the parent is B1. The data set can be described thus: abundance fitness (aPCA) (normalised: wild type 0, dead -1); higher = more abundant; growth selection in yeast, the domain comes from the species named. The settings on record: Homo sapiens.
In the case of CFKERTRSLLREWYLQDPTPNPSKKRELAQATGLTPTQVGNWFKNRRQRDR [Y19T], the abundance fitness is -0.278 ± 0.088. Under CFKERTRSLLREWYLQDPQPNPSKKRELAQATGLTPTQVGNWFKNRRQRDR [Y19Q] stands -0.426 ± 0.088; under CFKERTRSLLREWYLQDPCPNPSKKRELAQATGLTPTQVGNWFKNRRQRDR [Y19C], -0.308 ± 0.082; under CFKERTRSLLREWYLQDPLPNPSKKRELAQATGLTPTQVGNWFKNRRQRDR [Y19L], -0.352 ± 0.058.

For the variant CFKERTRSLLREWYLQDPSPNPSKKRELAQATGLTPTQVGNWFKNRRQRDR [Y19S], the abundance fitness was -0.514 ± 0.076. Then CFKERTRSLLREWYLQDPVPNPSKKRELAQATGLTPTQVGNWFKNRRQRDR [Y19V], with -0.474 ± 0.048. Then CFKERTRSLLREWYLQDPHPNPSKKRELAQATGLTPTQVGNWFKNRRQRDR [Y19H], with -0.337 ± 0.14; and CFKERTRSLLREWYLQDPGPNPSKKRELAQATGLTPTQVGNWFKNRRQRDR [Y19G], with -0.849 ± 0.07.

For the variant CFKERTRSLLREWYLQDPEPNPSKKRELAQATGLTPTQVGNWFKNRRQRDR [Y19E], the abundance fitness is -0.591 ± 0.14. Then CFKERTRSLLREWYLQDPMPNPSKKRELAQATGLTPTQVGNWFKNRRQRDR [Y19M], with -0.292 ± 0.11; and CFKERTRSLLREWYLQDPRPNPSKKRELAQATGLTPTQVGNWFKNRRQRDR [Y19R], with -0.184 ± 0.045; and CFKERTRSLLREWYLQDPAPNPSKKRELAQATGLTPTQVGNWFKNRRQRDR [Y19A], with -0.372 ± 0.081.

Consider CFKERTRSLLREWYLQDPWPNPSKKRELAQATGLTPTQVGNWFKNRRQRDR [Y19W], for which the abundance fitness was -0.374 ± 0.09. Take CFKERTRSLLREWYLQDPKPNPSKKRELAQATGLTPTQVGNWFKNRRQRDR [Y19K]: the abundance fitness was -0.095 ± 0.1. Then CFKERTRSLLREWYLQDPFPNPSKKRELAQATGLTPTQVGNWFKNRRQRDR [Y19F], with -0.089 ± 0.085. Under CFKERTRSLLREWYLQDPDPNPSKKRELAQATGLTPTQVGNWFKNRRQRDR [Y19D] stands -0.368 ± 0.17; under CFKERTRSLLREWYLQDPPPNPSKKRELAQATGLTPTQVGNWFKNRRQRDR [Y19P], -0.85 ± 0.087. Then CFKERTRSLLREWYLQDPNPNPSKKRELAQATGLTPTQVGNWFKNRRQRDR [Y19N], with -0.313 ± 0.11; and CFKERTRSLLREWCLQDPYPNPSKKRELAQATGLTPTQVGNWFKNRRQRDR [Y14C], with -0.822 ± 0.17; and CFKERTRSLLREWSLQDPYPNPSKKRELAQATGLTPTQVGNWFKNRRQRDR [Y14S], with -0.667 ± 0.066. As for CFKERTRSLLREWMLQDPYPNPSKKRELAQATGLTPTQVGNWFKNRRQRDR [Y14M], the abundance fitness is -0.891 ± 0.13. CFKERTRSLLREWHLQDPYPNPSKKRELAQATGLTPTQVGNWFKNRRQRDR [Y14H]: the abundance fitness is -0.951 ± 0.1.

Take CFKERTRSLLREWILQDPYPNPSKKRELAQATGLTPTQVGNWFKNRRQRDR [Y14I]: the abundance fitness was -0.746 ± 0.076. Under CFKERTRSLLREWQLQDPYPNPSKKRELAQATGLTPTQVGNWFKNRRQRDR [Y14Q] stands -0.834 ± 0.17; under CFKERTRSLLREWELQDPYPNPSKKRELAQATGLTPTQVGNWFKNRRQRDR [Y14E], -0.893 ± 0.1. Under CFKERTRSLLREWRLQDPYPNPSKKRELAQATGLTPTQVGNWFKNRRQRDR [Y14R] stands -0.849 ± 0.075; under CFKERTRSLLREWGLQDPYPNPSKKRELAQATGLTPTQVGNWFKNRRQRDR [Y14G], -0.833 ± 0.057.

As to CFKERTRSLLREWLLQDPYPNPSKKRELAQATGLTPTQVGNWFKNRRQRDR [Y14L], the abundance fitness is -0.828 ± 0.056. Under CFKERTRSLLREWKLQDPYPNPSKKRELAQATGLTPTQVGNWFKNRRQRDR [Y14K] stands -0.81 ± 0.14; under CFKERTRSLLREWNLQDPYPNPSKKRELAQATGLTPTQVGNWFKNRRQRDR [Y14N], -0.734 ± 0.16; under CFKERTRSLLREWTLQDPYPNPSKKRELAQATGLTPTQVGNWFKNRRQRDR [Y14T], -0.946 ± 0.062. Then CFKERTRSLLREWPLQDPYPNPSKKRELAQATGLTPTQVGNWFKNRRQRDR [Y14P], with -0.672 ± 0.13.

As to CFKERTRSLLREWDLQDPYPNPSKKRELAQATGLTPTQVGNWFKNRRQRDR [Y14D], the abundance fitness was -1.14 ± 0.31. Under CFKERTRSLLREWFLQDPYPNPSKKRELAQATGLTPTQVGNWFKNRRQRDR [Y14F] stands -0.294 ± 0.091; under CFKERTRSLLREWWLQDPYPNPSKKRELAQATGLTPTQVGNWFKNRRQRDR [Y14W], -0.711 ± 0.1. For CFKERTRSLLREWYLMDPYPNPSKKRELAQATGLTPTQVGNWFKNRRQRDR [Q16M], the abundance fitness is 0.13 ± 0.1. Then CFKERTRSLLREWYLTDPYPNPSKKRELAQATGLTPTQVGNWFKNRRQRDR [Q16T], with -0.249 ± 0.069. For the variant CFKERTRSLLREWYLKDPYPNPSKKRELAQATGLTPTQVGNWFKNRRQRDR [Q16K], the abundance fitness is -0.212 ± 0.12.

CFKERTRSLLREWYLPDPYPNPSKKRELAQATGLTPTQVGNWFKNRRQRDR [Q16P]: the abundance fitness was -0.712 ± 0.29. Then CFKERTRSLLREWYLHDPYPNPSKKRELAQATGLTPTQVGNWFKNRRQRDR [Q16H], with -0.173 ± 0.14; and CFKERTRSLLREWYLWDPYPNPSKKRELAQATGLTPTQVGNWFKNRRQRDR [Q16W], with -0.327 ± 0.096. Under CFKERTRSLLREWYLNDPYPNPSKKRELAQATGLTPTQVGNWFKNRRQRDR [Q16N] stands -0.092 ± 0.13; under CFKERTRSLLREWYLRDPYPNPSKKRELAQATGLTPTQVGNWFKNRRQRDR [Q16R], -0.076 ± 0.054. Under CFKERTRSLLREWYLFDPYPNPSKKRELAQATGLTPTQVGNWFKNRRQRDR [Q16F] stands -0.109 ± 0.099; under CFKERTRSLLREWYLDDPYPNPSKKRELAQATGLTPTQVGNWFKNRRQRDR [Q16D], -0.601 ± 0.38. In the case of CFKERTRSLLREWYLYDPYPNPSKKRELAQATGLTPTQVGNWFKNRRQRDR [Q16Y], the abundance fitness is -0.382 ± 0.068. Take CFKERTRSLLREWYLSDPYPNPSKKRELAQATGLTPTQVGNWFKNRRQRDR [Q16S]: the abundance fitness was -0.285 ± 0.046. With CFKERTRSLLREWYLEDPYPNPSKKRELAQATGLTPTQVGNWFKNRRQRDR [Q16E], the abundance fitness was -0.302 ± 0.069. Under CFKERTRSLLREWYLADPYPNPSKKRELAQATGLTPTQVGNWFKNRRQRDR [Q16A] stands -0.106 ± 0.046. In the case of CFKERTRSLLREWYLIDPYPNPSKKRELAQATGLTPTQVGNWFKNRRQRDR [Q16I], the abundance fitness amounted to 0.251 ± 0.1. Under CFKERTRSLLREWYLGDPYPNPSKKRELAQATGLTPTQVGNWFKNRRQRDR [Q16G] stands -0.564 ± 0.047.
